Reference: article PMC6426777 (Frontiers in Immunology, 2019)

Molecular target: T1, recombinant wild-type C1q (human, UniProt P02745 23-245; P02746 28-253; P02747 29-245)
T1 construct: C1q A chain, human; C1q B chain, human; C1q C chain, human; Hexamer of A-B-C heterotrimers (18 chains); also called C1qWT; WT; source: purified from culture supernatant (IgG-ovalbumin aggregates, anti-FLAG M2 column); copies: 6 + 6 + 6
Test: SPR; Biacore 3000, 25°C; C1q variants immobilised on CM5 chips by amine coupling; partners injected at 20 μl/min in 50 mM Tris-HCl, 150 mM NaCl, 2 mM CaCl2, 0.005% surfactant P20, pH 7.4; BSA reference surface; global fit to 1:1 Langmuir model; apparent KD = kd/ka
Conditions: both partners purified

T1 sequence (P02745 23-245, chain 1 of 3): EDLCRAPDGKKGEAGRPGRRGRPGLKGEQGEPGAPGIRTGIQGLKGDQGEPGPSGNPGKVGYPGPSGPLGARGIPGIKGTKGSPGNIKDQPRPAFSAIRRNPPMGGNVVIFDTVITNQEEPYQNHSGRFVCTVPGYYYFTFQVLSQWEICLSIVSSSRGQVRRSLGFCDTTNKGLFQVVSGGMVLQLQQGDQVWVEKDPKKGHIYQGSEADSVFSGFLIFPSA
T1 sequence (P02746 28-253, chain 2 of 3): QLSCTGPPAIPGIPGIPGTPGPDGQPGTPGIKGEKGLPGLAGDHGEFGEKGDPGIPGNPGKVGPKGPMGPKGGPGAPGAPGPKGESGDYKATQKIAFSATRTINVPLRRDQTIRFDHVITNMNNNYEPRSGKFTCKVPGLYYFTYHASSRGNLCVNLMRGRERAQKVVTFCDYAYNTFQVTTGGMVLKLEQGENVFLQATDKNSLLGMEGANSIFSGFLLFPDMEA
T1 sequence (P02747 29-245, chain 3 of 3): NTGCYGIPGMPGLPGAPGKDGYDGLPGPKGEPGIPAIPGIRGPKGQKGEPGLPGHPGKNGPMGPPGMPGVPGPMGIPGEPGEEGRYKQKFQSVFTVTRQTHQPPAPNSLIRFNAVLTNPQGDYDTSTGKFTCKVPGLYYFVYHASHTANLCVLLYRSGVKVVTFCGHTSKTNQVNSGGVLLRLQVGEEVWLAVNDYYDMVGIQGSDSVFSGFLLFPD

Kd: 5.04 nM | koff: 0.00234 s⁻¹ | kon: 463000 M⁻¹ s⁻¹
B1: recombinant human MASP-2 dimer (enzyme, UniProt O00187 16-686, looked up)
chain: TPLGPKWPEPVFGRLASPGFPGEYANDQERRWTLTAPPGYRLRLYFTHFDLELSHLCEYDFVKLSSGAKVLATLCGQESTDTERAPGKDTFYSLGSSLDITFRSDYSNEKPFTGFEAFYAAEDIDECQVAPGEAPTCDHHCHNHLGGFYCSCRAGYVLHRNKRTCSALCSGQVFTQRSGELSSPEYPRPYPKLSSCTYSISLEEGFSVILDFVESFDVETHPETLCPYDFLKIQTDREEHGPFCGKTLPHRIETKSNTVTITFVTDESGDHTGWKIHYTSTAQPCPYPMAPPNGHVSPVQAKYILKDSFSIFCETGYELLQGHLPLKSFTAVCQKDGSWDRPMPACSIVDCGPPDDLPSGRVEYITGPGVTTYKAVIQYSCEETFYTMKVNDGKYVCEADGFWTSSKGEKSLPVCEPVCGLSARTTGGRIYGGQKAKPGDFPWQVLILGGTTAAGALLYDNWVLTAAHAVYEQKHDASALDIRMGTLKRLSPHYTQAWSEAVFIHEGYTHDAGFDNDIALIKLNNKVVINSNITPICLPRKEAESFMRTDDIGTASGWGLTQRGFLARNLMYVDIPIVDHQKCTAAYEKPPYPRGSVTANMLCAGLESGGKDSCRGDSGGALVFLDSETERWFVGGIVSWGSMNCGEAGQYGVYTKVINYIPWIENIISDF
